In patent US7019123:
One block for each substance: values may come before it.

Assays:
[1] = target: bovine trypsin (bovine) (UniProt P00760); assay: enzyme inhibition; trypsin 48.5 pM
[2] = target: human plasmin (human) (UniProt P00747); assay: enzyme inhibition; human plasmin 50 pM
[3] = target: human plasma kallikrein (human) (UniProt P03952); assay: enzyme inhibition; apparent Ki
[4] = target: bovine pancreatic kallikrein (bovine); assay: enzyme inhibition; bovine pancreatic kallikrein 92.0 pM
[5] = target: bovine pancreatic kallikrein (bovine); assay: enzyme inhibition; comparison of Ki values with aprotinin
[6] = target: bovine pancreatic kallikrein (bovine); assay: enzyme inhibition, tight-binding fit; bovine pancreatic kallikrein 92 pM, PFR-AMC

Sequence of human plasma kallikrein (human) (P03952 20-638 limits assumed): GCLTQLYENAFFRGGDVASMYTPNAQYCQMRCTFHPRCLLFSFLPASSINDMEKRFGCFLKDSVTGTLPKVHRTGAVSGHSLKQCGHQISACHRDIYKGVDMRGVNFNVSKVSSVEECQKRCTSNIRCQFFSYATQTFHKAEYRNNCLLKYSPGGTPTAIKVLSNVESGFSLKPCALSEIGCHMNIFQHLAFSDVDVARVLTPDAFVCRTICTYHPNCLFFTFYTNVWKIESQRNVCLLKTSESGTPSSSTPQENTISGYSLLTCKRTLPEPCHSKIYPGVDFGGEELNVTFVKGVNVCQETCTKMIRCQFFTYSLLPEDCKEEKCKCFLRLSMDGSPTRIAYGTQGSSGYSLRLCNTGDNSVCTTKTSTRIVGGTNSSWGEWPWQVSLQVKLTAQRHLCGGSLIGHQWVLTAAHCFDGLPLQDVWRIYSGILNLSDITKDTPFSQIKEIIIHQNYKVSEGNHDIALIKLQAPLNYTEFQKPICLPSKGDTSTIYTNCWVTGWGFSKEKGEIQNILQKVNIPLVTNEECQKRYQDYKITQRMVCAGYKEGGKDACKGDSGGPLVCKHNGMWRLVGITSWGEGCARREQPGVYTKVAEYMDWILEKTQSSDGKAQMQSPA
Sequence of human plasmin (human) (P00747 97-810 limits assumed): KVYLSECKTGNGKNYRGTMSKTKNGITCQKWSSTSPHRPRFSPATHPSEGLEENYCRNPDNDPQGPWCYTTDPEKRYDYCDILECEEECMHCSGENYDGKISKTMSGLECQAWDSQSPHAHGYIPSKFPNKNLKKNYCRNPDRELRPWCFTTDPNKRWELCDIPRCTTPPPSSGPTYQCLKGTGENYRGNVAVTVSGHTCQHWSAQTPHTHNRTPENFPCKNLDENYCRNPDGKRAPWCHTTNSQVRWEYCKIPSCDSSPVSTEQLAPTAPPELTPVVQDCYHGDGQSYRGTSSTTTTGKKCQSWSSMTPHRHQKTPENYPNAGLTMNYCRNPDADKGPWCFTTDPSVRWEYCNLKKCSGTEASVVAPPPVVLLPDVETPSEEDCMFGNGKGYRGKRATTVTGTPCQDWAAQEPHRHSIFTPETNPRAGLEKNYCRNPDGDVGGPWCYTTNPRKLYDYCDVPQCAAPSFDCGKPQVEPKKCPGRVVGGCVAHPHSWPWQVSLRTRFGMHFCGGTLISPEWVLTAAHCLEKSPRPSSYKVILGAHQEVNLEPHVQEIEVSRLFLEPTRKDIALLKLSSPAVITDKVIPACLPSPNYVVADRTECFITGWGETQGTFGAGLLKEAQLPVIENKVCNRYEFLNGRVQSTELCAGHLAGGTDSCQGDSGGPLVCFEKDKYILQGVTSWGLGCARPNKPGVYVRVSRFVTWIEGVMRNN
Sequence of bovine trypsin (bovine) (P00760 24-246): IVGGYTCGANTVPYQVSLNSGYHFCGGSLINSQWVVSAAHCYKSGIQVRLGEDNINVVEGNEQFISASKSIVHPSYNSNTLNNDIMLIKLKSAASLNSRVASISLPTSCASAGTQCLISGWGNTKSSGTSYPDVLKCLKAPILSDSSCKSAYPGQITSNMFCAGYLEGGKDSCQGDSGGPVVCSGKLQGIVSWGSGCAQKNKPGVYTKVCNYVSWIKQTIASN

Ki [1]: 0.13 nM | Ki [2]: 1.9 nM
Substance: native human placental bikunin isolated from placenta (from UniProt O43291 28-203)

Ki [3]: 0.35 nM
Substance: recombinant placental bikunin (102-159) expressed in yeast SC101 (from UniProt O43291 129-186)

Ki [4]: 0.4 nM
Substance: synthetic placental bikunin (7-64), first preparation (from UniProt O43291 34-91)

Ki [4]: 0.4 nM | fold higher Ki than aprotinin [5]: 20 fold | Ki [6]: 0.4 nM
Substance: synthetic placental bikunin (102-159) (from UniProt O43291 129-186)
